Experimental data published in patent publication US20090172832A1 (published 2009).

Target: T1, R. rubrum RUBISCO LSU (RRrbcLSU, product of the RRrbcM gene) (Rhodospirillum rubrum, UniProt Q2RRP5 1-466)
T1 construct: The purified R. rubrum RUBISCO used as blot control is filed under this molecule too; also called R. rubrum RUBISCO protein; 55-kD RUBISCO-like protein
T1 sequence: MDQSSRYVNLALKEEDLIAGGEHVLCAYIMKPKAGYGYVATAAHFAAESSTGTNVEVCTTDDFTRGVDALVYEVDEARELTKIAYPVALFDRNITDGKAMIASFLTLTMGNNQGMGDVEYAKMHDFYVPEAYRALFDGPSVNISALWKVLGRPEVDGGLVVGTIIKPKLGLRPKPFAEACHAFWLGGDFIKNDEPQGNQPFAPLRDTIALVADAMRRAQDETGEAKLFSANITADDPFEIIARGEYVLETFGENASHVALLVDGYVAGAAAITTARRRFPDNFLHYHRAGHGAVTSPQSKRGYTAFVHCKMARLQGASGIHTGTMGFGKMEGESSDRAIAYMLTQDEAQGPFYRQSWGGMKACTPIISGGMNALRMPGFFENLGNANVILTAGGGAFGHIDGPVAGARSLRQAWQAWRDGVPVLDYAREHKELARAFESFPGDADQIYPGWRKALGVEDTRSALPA
Assay: SDS-PAGE of crude leaf extract of plant 1074 (Coomassie stain); inferred because SSU did not accumulate

B1: endogenous tobacco RUBISCO small subunit (SSU) (enzyme, Nicotiana tabacum, UniProt P69249 58-180, looked up)
chain: MQVWPPINKKKYETLSYLPDLSQEQLLSEVEYLLKNGWVPCLEFETEHGFVYRENNKSPGYYDGRYWTMWKLPMFGCTDATQVLAEVEEAKKAYPQAWIRIIGFDNVRQVQCISFIAYKPEGY
notes: Endogenous protein in leaf extracts; also called endogenous SSU; tobacco SSU
binding result: no binding
